Test [1] concerns the target T1, Complement Factor H protein (human, UniProt P08603 19-1231).
T1 construct: Plasma protein, bought purified or present in normal human serum; also called FH; CFH
The experiment in a line: plate-bound complement activation assay: BSA-DNP coat, bsAb with normal human serum, FH detected. Here is the method: BsAbs were functionally tested in plate-bound complement activation assays. To focus on the classical pathway, MaxiSorp plates were coated with 50 μL/well of a mixture of IgG (10 μg/mL, IVIg, Sanquin) or IgM (1 μg/mL, Merck, 401799) and BSA-DNP (10 μg/mL) or biotinylated BSA-DNP (10 μg/mL, biotinylated in-house) in coating buffer for 1 hour at 37° C. After every incubation, plates were washed three times with PBS/0.05% Tween 20. Plates were blocked with 100 μL/well PBS/1% BSA for 1 hour at 37° C. Samples containing 5 μg/mL (or a titration from 0.1 to 10 μg/mL) bsAbs, 10 μg/mL FH or C4BP, and 1% normal human serum (NHS) in RPMI were preincubated for 30 minutes at 4° C. After washing, plates were incubated with 50 μL/well samples for 1 hour at 37° C. Next, FH and C4BP were detected as described above for the bispecificity ELISA (using goat anti-human FH and HRP-labeled rabbit anti-goat Ig, or using rabbit anti-human C4BP and HRP-labeled goat anti-rabbit Ig), and C5b-9 was detected using mouse anti-human C5b-9 (Dako, M0777) and HRP-labeled goat anti-mouse Ig (Dako, P0447), all diluted in PTB buffer. Plates were developed by incubating with 50 μL/well ABTS containing 1:2000 diluted H₂O₂, and read at 415 nm using a microplate reader. […]

For test [2], the target named is T2, C4b-binding protein (human, UniProt P04003 49-597; P20851 18-252).
T2 construct: also called C4BP
T2 sequence (looked up) 1: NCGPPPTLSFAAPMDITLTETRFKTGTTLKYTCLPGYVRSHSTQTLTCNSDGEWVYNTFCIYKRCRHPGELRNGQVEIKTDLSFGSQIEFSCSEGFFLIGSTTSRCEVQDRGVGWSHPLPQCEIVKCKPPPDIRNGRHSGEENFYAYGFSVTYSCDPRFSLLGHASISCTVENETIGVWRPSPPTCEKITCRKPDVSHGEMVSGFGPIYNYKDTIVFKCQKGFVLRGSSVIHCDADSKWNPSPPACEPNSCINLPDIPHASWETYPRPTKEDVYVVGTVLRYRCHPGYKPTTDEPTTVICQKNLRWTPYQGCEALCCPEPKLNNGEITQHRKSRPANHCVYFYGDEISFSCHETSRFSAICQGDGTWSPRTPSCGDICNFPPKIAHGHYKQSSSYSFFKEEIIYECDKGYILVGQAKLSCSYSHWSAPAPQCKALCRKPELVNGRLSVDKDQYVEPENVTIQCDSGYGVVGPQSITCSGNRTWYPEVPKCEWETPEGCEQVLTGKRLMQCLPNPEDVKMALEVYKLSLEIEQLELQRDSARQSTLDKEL
T2 sequence (looked up) 2: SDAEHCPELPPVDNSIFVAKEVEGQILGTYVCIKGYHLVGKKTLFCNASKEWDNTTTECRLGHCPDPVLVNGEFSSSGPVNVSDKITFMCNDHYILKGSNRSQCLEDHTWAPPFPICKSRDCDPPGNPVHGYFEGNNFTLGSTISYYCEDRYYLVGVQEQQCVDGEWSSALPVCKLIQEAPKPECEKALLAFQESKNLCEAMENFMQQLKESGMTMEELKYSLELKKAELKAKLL
The experiment in a line: plate-bound complement activation assay: BSA-DNP coat, bsAb with normal human serum, C4BP detected. Here is the method:
BsAbs were functionally tested in plate-bound complement activation assays. To focus on the classical pathway, MaxiSorp plates were coated with 50 μL/well of a mixture of IgG (10 μg/mL, IVIg, Sanquin) or IgM (1 μg/mL, Merck, 401799) and BSA-DNP (10 μg/mL) or biotinylated BSA-DNP (10 μg/mL, biotinylated in-house) in coating buffer for 1 hour at 37° C. After every incubation, plates were washed three times with PBS/0.05% Tween 20. Plates were blocked with 100 μL/well PBS/1% BSA for 1 hour at 37° C. Samples containing 5 μg/mL (or a titration from 0.1 to 10 μg/mL) bsAbs, 10 μg/mL FH or C4BP, and 1% normal human serum (NHS) in RPMI were preincubated for 30 minutes at 4° C. After washing, plates were incubated with 50 μL/well samples for 1 hour at 37° C. Next, FH and C4BP were detected as described above for the bispecificity ELISA (using goat anti-human FH and HRP-labeled rabbit anti-goat Ig, or using rabbit anti-human C4BP and HRP-labeled goat anti-rabbit Ig), and C5b-9 was detected using mouse anti-human C5b-9 (Dako, M0777) and HRP-labeled goat anti-mouse Ig (Dako, P0447), all diluted in PTB buffer. Plates were developed by incubating with 50 μL/well ABTS containing 1:2000 diluted H₂O₂, and read at 415 nm using a microplate reader.

T1 sequence (P08603 19-1231 limits assumed): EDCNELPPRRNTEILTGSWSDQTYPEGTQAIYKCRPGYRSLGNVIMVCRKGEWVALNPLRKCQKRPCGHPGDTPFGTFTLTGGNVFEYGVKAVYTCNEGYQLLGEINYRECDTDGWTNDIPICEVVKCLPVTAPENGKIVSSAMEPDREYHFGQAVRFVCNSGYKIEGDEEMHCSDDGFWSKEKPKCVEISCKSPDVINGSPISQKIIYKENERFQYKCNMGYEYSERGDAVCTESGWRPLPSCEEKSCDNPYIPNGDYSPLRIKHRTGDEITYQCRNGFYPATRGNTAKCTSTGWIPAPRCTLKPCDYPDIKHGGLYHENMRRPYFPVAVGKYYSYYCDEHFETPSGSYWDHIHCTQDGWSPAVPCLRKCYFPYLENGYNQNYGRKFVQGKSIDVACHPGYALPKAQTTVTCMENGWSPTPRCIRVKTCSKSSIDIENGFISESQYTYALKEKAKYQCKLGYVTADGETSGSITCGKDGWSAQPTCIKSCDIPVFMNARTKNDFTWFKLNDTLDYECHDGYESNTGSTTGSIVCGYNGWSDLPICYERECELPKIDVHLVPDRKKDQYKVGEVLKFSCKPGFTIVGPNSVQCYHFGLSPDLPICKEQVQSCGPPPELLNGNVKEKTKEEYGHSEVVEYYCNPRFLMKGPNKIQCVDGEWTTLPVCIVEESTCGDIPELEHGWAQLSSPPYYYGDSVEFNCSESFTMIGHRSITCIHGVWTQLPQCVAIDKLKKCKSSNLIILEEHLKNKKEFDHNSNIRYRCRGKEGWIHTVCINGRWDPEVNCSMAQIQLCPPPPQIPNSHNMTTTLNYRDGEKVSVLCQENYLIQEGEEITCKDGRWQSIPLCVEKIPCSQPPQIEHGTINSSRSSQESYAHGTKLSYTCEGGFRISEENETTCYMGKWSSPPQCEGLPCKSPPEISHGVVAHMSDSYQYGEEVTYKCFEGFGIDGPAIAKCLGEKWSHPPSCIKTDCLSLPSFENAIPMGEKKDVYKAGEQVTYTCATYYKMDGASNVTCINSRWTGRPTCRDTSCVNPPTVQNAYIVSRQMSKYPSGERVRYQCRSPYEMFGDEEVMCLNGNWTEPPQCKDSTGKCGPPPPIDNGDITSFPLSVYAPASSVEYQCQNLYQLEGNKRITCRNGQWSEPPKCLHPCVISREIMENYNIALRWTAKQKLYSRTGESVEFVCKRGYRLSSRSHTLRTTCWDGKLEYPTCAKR

B1: Anti-HIV F405L LALAPG, Anti-DNP K409R LALAPG (bispecific antibody, human IgG1, kappa, L234A L235A)
heavy 1: QVQLVQSGAEVKKPGASVKVSCQASGYRFSNFVIHWVRQAPGQRFEWMGWINPYNGNKEFSAKFQDRVTFTADTSANTAYMELRSLRSADTAVYYCARVGPYSWDDSPQDNYYMDVWGKGTTVIVSSASTKGPSVFPLAPSSKSTSGGTAALGCLVKDYFPEPVTVSWNSGALTSGVHTFPAVLQSSGLYSLSSVVTVPSSSLGTQTYICNVNHKPSNTKVDKRVEPKSCDKTHTCPPCPAPEAAGGPSVFLFPPKPKDTLMISRTPEVTCVVVDVSHEDPEVKFNWYVDGVEVHNAKTKPREEQYNSTYRVVSVLTVLHQDWLNGKEYKCKVSNKALGAPIEKTISKAKGQPREPQVYTLPPSREEMTKNQVSLTCLVKGFYPSDIAVEWESNGQPENNYKTTPPVLDSDGSFLLYSKLTVDKSRWQQGNVFSCSVMHEALHNHYTQKSLSLSPGK
light 1: EIVLTQSPGTLSLSPGERATFSCRSSHSIRSRRVAWYQHKPGQAPRLVIHGVSNRASGISDRFSGSGSGTDFTLTITRVEPEDFALYYCQVYGASSYTFGQGTKLERKRTVAAPSVFIFPPSDEQLKSGTASVVCLLNNFYPREAKVQWKVDNALQSGNSQESVTEQDSKDSTYSLSSTLTLSKADYEKHKVYACEVTHQGLSSPVTKSFNRGEC
heavy 2: DVRLQESGPGLVKPSQSLSLTCSVTGYSITNSYYWNWIRQFPGNKLEWMVYIGYDGSNNYNPSLKNRISITRDTSKNQFFLKLNSVTTEDTATYYCARATYYGNYRGFAYWGQGTLVTVSAASTKGPSVFPLAPSSKSTSGGTAALGCLVKDYFPEPVTVSWNSGALTSGVHTFPAVLQSSGLYSLSSVVTVPSSSLGTQTYICNVNHKPSNTKVDKRVEPKSCDKTHTCPPCPAPEAAGGPSVFLFPPKPKDTLMISRTPEVTCVVVDVSHEDPEVKFNWYVDGVEVHNAKTKPREEQYNSTYRVVSVLTVLHQDWLNGKEYKCKVSNKALGAPIEKTISKAKGQPREPQVYTLPPSREEMTKNQVSLTCLVKGFYPSDIAVEWESNGQPENNYKTTPPVLDSDGSFFLYSRLTVDKSRWQQGNVFSCSVMHEALHNHYTQKSLSLSPGK
light 2: DIRMTQTTSSLSASLGDRVTISCRASQDISNYLNWYQQKPDGTVKLLIYYTSRLHSGVPSRFSGSGSGTDYSLTISNLEQEDIATYFCQQGNTLPWTFGGGTKLEIKRTVAAPSVFIFPPSDEQLKSGTASVVCLLNNFYPREAKVQWKVDNALQSGNSQESVTEQDSKDSTYSLSSTLTLSKADYEKHKVYACEVTHQGLSSPVTKSFNRGEC
notes: also called anti-HIV x anti-DNP
Turning to B1, the binding result in test [1] and in test [2] was “no binding” throughout.

The record behind these values is patent publication US20260258117A1 (ACADEMISCH ZIEKENHUIS LEIDEN H O D N LUMC, published 2026).
